The target of the assay is TrkB receptor on rat C6 glioma cells (rat, UniProt Q63604 32-821). Kind of assay: cell-based or functional assay.

Values joined by “and” are separate entries in the source; they are usually repeats but may differ in a detail not shown here. Identical values can stand only once.

Chain of TrkB receptor on rat C6 glioma cells (Q63604 32-821): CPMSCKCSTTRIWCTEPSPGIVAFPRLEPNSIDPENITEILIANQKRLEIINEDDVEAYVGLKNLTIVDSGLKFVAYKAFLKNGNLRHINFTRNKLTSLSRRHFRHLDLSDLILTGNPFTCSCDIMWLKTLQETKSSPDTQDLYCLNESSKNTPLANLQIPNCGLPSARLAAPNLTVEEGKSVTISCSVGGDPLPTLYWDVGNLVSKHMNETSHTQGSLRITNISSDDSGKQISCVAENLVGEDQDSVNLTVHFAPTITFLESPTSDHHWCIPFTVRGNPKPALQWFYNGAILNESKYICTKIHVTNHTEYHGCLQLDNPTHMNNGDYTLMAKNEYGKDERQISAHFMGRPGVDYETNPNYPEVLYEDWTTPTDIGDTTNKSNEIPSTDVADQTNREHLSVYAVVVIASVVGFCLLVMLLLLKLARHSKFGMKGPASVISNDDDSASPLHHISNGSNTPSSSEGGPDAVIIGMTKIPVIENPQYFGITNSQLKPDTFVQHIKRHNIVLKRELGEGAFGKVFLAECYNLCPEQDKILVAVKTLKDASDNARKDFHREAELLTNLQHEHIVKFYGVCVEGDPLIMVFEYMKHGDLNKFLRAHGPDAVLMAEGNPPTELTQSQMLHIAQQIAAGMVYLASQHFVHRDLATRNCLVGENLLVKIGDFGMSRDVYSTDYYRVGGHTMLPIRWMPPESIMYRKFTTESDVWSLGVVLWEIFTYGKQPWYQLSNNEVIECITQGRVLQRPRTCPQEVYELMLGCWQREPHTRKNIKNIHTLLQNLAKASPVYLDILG

B1: recombinant human brain-derived neurotrophic factor (BDNF) (ligand)
chain: HSDPARRGELSVCDSISEWVTAADKKTAVDMSGGTVTVLEKVPVSKGQLKQYFYETKCNPMGYTKEGCRGIDKRHWNSQCRTTQSYVRALTMDSKKRIGWRFIRIDTSCVCTLTIKRGR
As for B1, the “EC50, concentration of rhBDNF required to induce 50% proliferation of C6 cells (MTS assay, 48h)” value was ~3 µg/mL and ~0.11 µM.

The values above are taken from patent EP4413993A1 (Dompe' Farmaceutici S.P.A., dated 2024).
